# Measured values published in PMC3256231.
# Legend:
# [1] = target: human collagen IV (immobilized, SPR) (human) (UniProt P02462); experiment: SPR; human collagen IV immobilised (400 RU); recombinant M proteins injected for 2 min at 60 µl/min; apparent constants, Langmuir model for 1:1 interactions (BiaEvaluation 3.0)
# [2] = target: M protein stG120.1 (Streptococcus dysgalactiae subsp. equisimilis); experiment: radioligand binding; 250 µl of streptococci (10^8 bacteria per ml in PBS with 0.05% Tween 20), before and after hyaluronidase treatment, incubated 45 min with 30 ng (100,000 cpm) of 125I-labelled collagen IV; washed, radioactivity of the pellet counted; cut-off 20% bound ligand
# [3] = target: M protein M3.22 (Streptococcus pyogenes); experiment: as above
substance,measurement,setting,value
recombinant M protein M55 (from UniProt Q54840 1-550) (natural protein),Kd,[1],5 nM
recombinant M protein stG2078 (natural protein),SPR response,[1],< 4 RU
recombinant M protein M31.5 (natural protein),Kd,[1],0.6 nM
"125I-labelled collagen IV (from human placenta, Sigma-Aldrich) (from UniProt P02462 173-1669; P08572 184-1712) (complex)",percent bound ligand (% bound ligand),[2],56
same,percent of the added collagen IV bound (% of the added collagen IV),[3],> 20
